In patent US20250262210A1 (TRUSTEES OF COLUMBIA UNIVERSITY IN THE CITY OF NEW YORK, published 2025):

How the values were obtained:
Experiment in all cases: IP/MS, LZTR1 wild type-FLAG, U87
HTT = HTT (human, UniProt P42858 1-3142)
Method in brief: (§1)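 Read-out: spectral counts from LC-MS/MS (Orbitrap Fusion) after MaxQuant identification. Variable modifications were Met oxidation, protein N-terminal acetylation and N/Q deamidation.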

MTR = MTR (human, UniProt Q99707 1-1265, limits assumed)
Method in brief: as §1

KIAA1217 = KIAA1217 (human, UniProt Q5T5P2 1-1943, limits assumed)
Method in brief: as §1

CDK5RAP2 = CDK5RAP2 (human, UniProt Q96SN8 1-1893, limits assumed)
Chain of CDK5RAP2 (Q96SN8 whole entry): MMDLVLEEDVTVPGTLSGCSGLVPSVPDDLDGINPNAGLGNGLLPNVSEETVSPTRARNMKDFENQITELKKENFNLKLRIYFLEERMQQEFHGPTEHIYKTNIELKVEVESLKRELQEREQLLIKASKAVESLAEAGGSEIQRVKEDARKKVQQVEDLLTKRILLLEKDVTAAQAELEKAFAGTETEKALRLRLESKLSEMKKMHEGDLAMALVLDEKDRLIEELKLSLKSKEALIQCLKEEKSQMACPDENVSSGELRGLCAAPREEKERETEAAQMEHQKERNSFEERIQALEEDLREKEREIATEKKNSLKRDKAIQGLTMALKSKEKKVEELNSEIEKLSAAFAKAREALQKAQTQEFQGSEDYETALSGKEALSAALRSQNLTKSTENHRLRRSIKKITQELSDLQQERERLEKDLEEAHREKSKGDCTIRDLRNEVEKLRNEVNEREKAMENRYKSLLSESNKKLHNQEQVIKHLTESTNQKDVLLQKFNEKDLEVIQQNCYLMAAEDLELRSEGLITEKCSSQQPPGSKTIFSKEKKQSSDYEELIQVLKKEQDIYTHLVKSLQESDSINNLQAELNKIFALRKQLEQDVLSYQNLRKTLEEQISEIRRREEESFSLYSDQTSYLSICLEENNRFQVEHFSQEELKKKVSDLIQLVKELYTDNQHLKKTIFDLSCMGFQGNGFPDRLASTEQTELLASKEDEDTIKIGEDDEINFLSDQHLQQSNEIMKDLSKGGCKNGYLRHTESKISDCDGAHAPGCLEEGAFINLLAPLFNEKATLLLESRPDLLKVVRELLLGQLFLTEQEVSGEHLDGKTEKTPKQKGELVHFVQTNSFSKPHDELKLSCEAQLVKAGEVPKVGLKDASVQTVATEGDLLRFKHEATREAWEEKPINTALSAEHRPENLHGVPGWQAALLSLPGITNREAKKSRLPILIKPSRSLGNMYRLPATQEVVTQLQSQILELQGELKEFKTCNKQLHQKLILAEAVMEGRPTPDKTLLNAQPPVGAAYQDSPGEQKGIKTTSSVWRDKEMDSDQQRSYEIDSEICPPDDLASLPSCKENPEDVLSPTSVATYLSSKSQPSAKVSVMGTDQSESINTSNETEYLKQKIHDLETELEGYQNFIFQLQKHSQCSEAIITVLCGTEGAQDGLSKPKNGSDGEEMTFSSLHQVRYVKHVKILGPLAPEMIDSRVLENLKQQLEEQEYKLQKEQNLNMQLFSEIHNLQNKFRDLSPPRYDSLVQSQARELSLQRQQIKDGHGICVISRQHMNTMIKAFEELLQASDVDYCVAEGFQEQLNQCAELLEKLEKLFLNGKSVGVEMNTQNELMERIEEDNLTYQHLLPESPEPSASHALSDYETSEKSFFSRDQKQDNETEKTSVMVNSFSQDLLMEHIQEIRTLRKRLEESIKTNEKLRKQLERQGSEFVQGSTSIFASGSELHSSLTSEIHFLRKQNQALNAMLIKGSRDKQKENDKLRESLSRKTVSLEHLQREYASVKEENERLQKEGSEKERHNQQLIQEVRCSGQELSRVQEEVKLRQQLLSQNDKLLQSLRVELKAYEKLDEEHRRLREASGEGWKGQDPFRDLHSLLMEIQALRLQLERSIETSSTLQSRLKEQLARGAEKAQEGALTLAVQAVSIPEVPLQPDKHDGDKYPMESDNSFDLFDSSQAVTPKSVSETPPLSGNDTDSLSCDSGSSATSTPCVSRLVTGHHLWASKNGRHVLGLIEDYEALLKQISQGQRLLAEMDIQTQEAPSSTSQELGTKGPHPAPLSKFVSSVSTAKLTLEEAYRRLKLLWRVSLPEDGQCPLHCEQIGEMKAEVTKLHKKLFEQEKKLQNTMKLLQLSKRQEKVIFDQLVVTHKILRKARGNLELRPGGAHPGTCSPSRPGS
Method in brief: as §1

USP4 = target: T1, USP4 (human, UniProt Q13107 1-963, limits assumed)
T1 sequence (looked up): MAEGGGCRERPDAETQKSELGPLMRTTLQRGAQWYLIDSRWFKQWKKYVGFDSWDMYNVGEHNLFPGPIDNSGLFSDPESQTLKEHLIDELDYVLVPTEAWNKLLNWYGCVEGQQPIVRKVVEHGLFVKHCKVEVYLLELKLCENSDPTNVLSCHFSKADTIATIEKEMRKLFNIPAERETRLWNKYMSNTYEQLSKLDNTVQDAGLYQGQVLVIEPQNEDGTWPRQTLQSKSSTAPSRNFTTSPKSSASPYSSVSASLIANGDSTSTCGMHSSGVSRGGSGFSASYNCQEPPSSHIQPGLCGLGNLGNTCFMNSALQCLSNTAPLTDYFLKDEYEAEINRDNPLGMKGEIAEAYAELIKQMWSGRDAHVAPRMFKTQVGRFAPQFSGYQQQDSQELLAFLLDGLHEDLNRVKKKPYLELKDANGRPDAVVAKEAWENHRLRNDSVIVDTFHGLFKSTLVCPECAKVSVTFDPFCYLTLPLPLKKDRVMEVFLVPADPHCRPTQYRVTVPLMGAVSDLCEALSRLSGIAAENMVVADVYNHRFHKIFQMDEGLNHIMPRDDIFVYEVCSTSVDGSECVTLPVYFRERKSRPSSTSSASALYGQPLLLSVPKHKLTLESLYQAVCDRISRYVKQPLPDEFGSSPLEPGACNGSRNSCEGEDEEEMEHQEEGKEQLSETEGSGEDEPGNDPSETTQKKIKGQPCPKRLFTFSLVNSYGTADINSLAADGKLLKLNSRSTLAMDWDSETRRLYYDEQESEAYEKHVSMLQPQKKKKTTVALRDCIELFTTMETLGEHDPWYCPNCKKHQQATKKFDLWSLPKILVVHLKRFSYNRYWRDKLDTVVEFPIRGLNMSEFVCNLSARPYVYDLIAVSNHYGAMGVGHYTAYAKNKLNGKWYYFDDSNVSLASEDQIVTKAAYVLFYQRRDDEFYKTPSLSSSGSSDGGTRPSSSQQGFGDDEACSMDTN
Method in brief: as §1

Chain of HTT (P42858 whole entry, the tested form may be a part): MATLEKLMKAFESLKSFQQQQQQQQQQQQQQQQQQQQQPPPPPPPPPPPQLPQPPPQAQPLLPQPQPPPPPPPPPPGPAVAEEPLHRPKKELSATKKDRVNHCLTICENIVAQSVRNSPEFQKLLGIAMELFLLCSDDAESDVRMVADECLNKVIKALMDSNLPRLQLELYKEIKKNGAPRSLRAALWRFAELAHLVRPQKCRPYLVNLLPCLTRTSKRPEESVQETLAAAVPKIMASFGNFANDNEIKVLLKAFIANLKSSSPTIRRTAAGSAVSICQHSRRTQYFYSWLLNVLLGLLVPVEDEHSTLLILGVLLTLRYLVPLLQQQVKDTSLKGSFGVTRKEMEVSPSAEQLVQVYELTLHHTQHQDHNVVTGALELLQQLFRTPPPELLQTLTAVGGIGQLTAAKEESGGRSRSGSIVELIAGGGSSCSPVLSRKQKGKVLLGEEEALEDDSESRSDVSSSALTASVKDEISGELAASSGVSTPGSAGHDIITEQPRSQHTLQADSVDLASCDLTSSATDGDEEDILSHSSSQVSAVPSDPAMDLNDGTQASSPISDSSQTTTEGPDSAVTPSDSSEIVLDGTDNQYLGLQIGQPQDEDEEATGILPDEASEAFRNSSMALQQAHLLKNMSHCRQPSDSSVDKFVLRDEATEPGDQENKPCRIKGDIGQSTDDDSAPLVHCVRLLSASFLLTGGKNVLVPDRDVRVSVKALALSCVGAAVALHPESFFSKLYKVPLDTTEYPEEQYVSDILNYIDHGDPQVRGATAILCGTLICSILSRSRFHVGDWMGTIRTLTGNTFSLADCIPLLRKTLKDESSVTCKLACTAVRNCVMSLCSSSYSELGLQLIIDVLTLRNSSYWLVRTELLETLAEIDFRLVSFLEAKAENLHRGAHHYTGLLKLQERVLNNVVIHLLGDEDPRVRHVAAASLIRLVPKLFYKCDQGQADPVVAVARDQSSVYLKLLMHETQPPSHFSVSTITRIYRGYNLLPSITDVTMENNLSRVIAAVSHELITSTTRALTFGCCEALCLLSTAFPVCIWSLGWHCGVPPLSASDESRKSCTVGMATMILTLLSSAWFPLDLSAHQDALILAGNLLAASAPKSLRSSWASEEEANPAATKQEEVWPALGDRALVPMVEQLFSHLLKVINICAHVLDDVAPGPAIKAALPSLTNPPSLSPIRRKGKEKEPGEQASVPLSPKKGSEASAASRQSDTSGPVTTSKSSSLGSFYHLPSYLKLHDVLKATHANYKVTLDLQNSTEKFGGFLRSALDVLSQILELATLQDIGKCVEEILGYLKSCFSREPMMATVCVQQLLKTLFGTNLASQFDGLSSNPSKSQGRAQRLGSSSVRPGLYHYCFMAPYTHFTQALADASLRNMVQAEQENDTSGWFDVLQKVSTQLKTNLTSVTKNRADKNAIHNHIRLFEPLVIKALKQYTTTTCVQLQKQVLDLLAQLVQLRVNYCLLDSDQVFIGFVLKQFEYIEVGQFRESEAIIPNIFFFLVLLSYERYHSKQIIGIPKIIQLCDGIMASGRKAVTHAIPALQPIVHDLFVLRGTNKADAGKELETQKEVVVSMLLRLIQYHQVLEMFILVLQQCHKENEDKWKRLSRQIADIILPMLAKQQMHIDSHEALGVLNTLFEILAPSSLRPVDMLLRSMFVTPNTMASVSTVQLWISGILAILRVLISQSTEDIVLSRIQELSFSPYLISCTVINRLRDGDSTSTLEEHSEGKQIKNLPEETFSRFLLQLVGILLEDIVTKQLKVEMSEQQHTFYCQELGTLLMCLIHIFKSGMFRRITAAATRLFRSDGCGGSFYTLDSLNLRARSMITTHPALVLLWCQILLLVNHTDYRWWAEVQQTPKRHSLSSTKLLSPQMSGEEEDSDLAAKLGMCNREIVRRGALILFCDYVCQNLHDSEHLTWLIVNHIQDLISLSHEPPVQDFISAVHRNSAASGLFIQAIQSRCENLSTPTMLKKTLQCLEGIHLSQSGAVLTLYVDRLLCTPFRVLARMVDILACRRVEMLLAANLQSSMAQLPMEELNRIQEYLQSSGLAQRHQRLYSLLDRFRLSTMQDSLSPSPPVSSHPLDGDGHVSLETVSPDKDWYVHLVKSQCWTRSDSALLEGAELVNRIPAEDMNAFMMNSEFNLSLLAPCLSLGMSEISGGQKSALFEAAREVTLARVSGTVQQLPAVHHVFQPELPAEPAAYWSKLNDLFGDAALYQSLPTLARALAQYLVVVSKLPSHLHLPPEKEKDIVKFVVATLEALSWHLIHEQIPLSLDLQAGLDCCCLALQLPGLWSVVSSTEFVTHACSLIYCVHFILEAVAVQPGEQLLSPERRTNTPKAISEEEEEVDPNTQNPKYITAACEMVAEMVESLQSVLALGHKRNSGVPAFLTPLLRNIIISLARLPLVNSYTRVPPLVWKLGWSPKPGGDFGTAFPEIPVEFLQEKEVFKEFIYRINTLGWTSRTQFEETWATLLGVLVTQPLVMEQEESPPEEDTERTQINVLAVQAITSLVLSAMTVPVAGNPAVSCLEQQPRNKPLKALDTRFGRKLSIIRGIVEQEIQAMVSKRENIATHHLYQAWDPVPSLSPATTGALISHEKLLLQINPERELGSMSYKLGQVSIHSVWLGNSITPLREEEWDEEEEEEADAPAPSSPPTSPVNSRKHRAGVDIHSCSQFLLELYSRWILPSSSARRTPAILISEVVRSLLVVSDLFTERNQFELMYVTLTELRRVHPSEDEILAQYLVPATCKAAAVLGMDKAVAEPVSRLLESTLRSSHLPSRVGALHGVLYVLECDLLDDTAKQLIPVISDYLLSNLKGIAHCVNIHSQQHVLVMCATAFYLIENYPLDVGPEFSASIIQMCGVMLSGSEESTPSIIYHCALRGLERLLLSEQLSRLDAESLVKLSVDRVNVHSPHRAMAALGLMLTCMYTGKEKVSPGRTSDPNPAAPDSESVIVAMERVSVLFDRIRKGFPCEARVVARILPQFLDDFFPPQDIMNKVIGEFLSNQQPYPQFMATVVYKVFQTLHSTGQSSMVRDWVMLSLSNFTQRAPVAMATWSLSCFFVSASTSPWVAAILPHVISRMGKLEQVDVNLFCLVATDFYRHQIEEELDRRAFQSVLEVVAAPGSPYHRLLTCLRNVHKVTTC

binding result (HTT): binds
binding result (MTR): binds
binding result (KIAA1217): binds
binding result (CDK5RAP2): binds
binding result (USP4): binds
B1: LZTR1-FLAG (other, human, UniProt Q8N653 1-840, looked up)
chain: MAGPGSTGGQIGAAALAGGARSKVAPSVDFDHSCSDSVEYLTLNFGPFETVHRWRRLPPCDEFVGARRSKHTVVAYKDAIYVFGGDNGKTMLNDLLRFDVKDCSWCRAFTTGTPPAPRYHHSAVVYGSSMFVFGGYTGDIYSNSNLKNKNDLFEYKFATGQWTEWKIEGRLPVARSAHGATVYSDKLWIFAGYDGNARLNDMWTIGLQDRELTCWEEVAQSGEIPPSCCNFPVAVCRDKMFVFSGQSGAKITNNLFQFEFKDKTWTRIPTEHLLRGSPPPPQRRYGHTMVAFDRHLYVFGGAADNTLPNELHCYDVDFQTWEVVQPSSDSEVGGAEVPERACASEEVPTLTYEERVGFKKSRDVFGLDFGTTSAKQPTQPASELPSGRLFHAAAVISDAMYIFGGTVDNNIRSGEMYRFQFSCYPKCTLHEDYGRLWESRQFCDVEFVLGEKEECVQGHVAIVTARSRWLRRKITQARERLAQKLEQEAAPVPREAPGVAAGGARPPLLHVAIREAEARPFEVLMQFLYTDKIKYPRKGHVEDVLLIMDVYKLALSFQLCRLEQLCRQYIEASVDLQNVLVVCESAARLQLSQLKEHCLNFVVKESHFNQVIMMKEFERLSSPLIVEIVRRKQQPPPRTPLDQPVDIGTSLIQDMKAYLEGAGAEFCDITLLLDGHPRPAHKAILAARSSYFEAMFRSFMPEDGQVNISIGEMVPSRQAFESMLRYIYYGEVNMPPEDSLYLFAAPYYYGFYNNRLQAYCKQNLEMNVTVQNVLQILEAADKTQALDMKRHCLHIIVHQFTKVSKLPTLRSLSQQLLLDIIDSLASHISDKQCAELGADI
notes: Expressed in HEK 293T, HeLa or U87 cells; used as cell lysate; also called LZTR1 wild type-FLAG; LZTR1 WT; not shown: FLAG tag at the C-terminus
